From PMC10365013

Biological target: avi-tagged SHOC2 (human) (UniProt Q9UQ13)
Assay: SPR

Sequence of avi-tagged SHOC2 (human) (Q9UQ13 whole entry): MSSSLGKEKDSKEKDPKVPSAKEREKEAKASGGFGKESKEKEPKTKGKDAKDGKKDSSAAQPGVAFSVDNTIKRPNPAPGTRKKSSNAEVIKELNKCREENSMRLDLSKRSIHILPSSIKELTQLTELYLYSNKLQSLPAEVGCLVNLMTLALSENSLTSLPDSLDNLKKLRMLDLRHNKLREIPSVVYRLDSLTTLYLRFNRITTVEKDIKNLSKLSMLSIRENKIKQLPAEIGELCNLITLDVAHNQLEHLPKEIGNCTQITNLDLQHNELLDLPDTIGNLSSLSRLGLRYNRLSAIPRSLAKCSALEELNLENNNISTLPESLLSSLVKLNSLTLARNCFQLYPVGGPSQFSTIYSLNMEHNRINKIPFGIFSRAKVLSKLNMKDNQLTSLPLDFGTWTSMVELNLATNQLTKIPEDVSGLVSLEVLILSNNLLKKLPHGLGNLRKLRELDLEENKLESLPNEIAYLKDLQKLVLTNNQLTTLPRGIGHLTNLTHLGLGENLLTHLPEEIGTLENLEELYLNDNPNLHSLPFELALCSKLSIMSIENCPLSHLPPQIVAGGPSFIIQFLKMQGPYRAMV

apparent KD of ternary complex formation with m3: 700 nM
Substance: KRAS (1–169) (from UniProt P01116 1-169) (domain or fragment)
